Assay results: IntAct's records for PubMed 15207857

B1: Glutamate receptor ionotropic, delta-2 (Mus musculus), Q61625 (parent)
chain: MEVFPLLLFLSFCWSRTWDLATADSIIHIGAIFDESAKKDDEVFRTAVGDLNQNEEILQTEKITFSVTFVDGNNPFQAVQEACELMNQGILALVSSIGCTSAGSLQSLADAMHIPHLFIQRSTAGTPRSGCGLTRSNRNDDYTLSVRPPVYLNEVILRVVTEYAWQKFIIFYDSEYDIRGIQEFLDKVSQQGMDVALQKVENNINKMITTLFDTMRIEELNRYRDTLRRAILVMNPATAKSFISEVVETNLVAFDCHWIIINEEINDVDVQELVRRSIGRLTIIRQTFPVPQNISQRCFRGNHRISSSLCDPKDPFAQNMEISNLYIYDTVLLLANAFHKKLEDRKWHSMASLSCIRKNSKPWQGGRSMLETIKKGGVNGLTGDLEFGENGGNPNVHFEILGTNYGEELGRGVRKLGCWNPVTGLNGSLTDKKLENNMRGVVLRVVTVLEEPFVMVSENVLGKPKKYQGFSIDVLDALSNYLGFNYEIYVAPDHKYGSPQEDGTWNGLVGELVFKRADIGISALTITPDRENVVDFTTRYMDYSVGVLLRRAEKTVDMFACLAPFDLSLWACIAGTVLLVGLLVYLLNWLNPPRLQMGSMTSTTLYNSMWFVYGSFVQQGGEVPYTTLATRMMMGAWWLFALIVISSYTANLAAFLTITRIESSIQSLQDLSKQTDIPYGTVLDSAVYQHVRMKGLNPFERDSMYSQMWRMINRSNGSENNVLESQAGIQKVKYGNYAFVWDAAVLEYVAINDPDCSFYTVGNTVADRGYGIALQHGSPYRDVFSQRILELQQSGDMDILKHKWWPKNGQCDLYSSVDAKQKGGALDIKSLAGVFCILAAGIVLSCLIAVLETWWSRRKGSRVPSKEDDKEIDLEHLHRRVNSLCTDDDSPHKQFSTSSIDLTPLDIDTLPTRQALEQISDFRNTHITTTTFIPEQIQTLSRTLSAKAASGFAFGSVPEHRTGPFRHRAPNGGFFRSPIKTMSSIPYQPTPTLGLNLGNDPDRGTSI
partner: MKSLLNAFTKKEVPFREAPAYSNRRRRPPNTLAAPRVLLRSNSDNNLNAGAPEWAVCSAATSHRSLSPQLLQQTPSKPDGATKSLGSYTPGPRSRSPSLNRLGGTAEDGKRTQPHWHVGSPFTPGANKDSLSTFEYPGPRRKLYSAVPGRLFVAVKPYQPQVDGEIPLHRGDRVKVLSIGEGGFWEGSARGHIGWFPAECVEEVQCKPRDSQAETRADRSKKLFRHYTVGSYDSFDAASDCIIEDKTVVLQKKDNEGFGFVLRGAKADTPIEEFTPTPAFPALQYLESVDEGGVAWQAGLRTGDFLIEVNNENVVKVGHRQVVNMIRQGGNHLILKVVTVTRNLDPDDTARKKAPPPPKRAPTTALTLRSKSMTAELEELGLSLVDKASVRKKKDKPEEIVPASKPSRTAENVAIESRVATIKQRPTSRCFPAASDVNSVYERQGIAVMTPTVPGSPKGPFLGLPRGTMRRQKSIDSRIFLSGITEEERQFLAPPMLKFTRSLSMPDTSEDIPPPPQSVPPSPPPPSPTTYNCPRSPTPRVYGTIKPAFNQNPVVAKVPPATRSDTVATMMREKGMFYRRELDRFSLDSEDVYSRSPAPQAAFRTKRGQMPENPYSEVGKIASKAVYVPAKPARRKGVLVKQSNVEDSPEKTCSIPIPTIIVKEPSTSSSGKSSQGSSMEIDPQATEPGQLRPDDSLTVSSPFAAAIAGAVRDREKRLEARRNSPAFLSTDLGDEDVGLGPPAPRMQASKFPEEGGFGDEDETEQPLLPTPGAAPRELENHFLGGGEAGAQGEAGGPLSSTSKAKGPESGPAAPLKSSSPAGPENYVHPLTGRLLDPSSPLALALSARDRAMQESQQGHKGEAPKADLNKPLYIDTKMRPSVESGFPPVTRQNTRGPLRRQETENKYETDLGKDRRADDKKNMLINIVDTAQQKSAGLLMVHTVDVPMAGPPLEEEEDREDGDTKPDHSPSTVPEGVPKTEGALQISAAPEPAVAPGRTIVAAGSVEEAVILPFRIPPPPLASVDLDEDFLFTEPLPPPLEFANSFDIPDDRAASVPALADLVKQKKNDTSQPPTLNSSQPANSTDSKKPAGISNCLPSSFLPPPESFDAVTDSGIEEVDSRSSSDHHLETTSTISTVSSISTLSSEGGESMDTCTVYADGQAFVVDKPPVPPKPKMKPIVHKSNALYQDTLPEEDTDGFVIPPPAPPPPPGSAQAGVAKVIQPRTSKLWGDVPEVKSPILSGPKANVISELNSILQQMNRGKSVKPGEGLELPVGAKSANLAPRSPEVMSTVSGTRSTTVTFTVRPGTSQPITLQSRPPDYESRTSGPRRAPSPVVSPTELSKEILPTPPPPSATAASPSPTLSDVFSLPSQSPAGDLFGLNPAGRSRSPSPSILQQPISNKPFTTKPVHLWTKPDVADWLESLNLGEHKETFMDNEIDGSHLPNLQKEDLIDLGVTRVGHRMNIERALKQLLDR
B2: Glutamate receptor ionotropic, delta-2 (Mus musculus), Q61625 (parent)
chain: B1 chain

Variants of: B1
Conditions: with shan2_mouse Shank2, Q80Z38

Row | Variant | effect of a mutation on the interaction
1 | S920A;T930A;F932A | disrupting interaction

Variants of: B1
Conditions: with shan2_mouse Shank2, Q80Z38
Remark: another data set of the same source

Row | Variant | effect of a mutation on the interaction
2 | T930A;F932A | decreasing interaction
3 | T930A | decreasing interaction
4 | S920A | disrupting interaction

Variants of: B2
Conditions: with shan1_rat Shank1, Q9WV48
Sequence of shan1_rat Shank1, Q9WV48 (Q9WV48 whole entry): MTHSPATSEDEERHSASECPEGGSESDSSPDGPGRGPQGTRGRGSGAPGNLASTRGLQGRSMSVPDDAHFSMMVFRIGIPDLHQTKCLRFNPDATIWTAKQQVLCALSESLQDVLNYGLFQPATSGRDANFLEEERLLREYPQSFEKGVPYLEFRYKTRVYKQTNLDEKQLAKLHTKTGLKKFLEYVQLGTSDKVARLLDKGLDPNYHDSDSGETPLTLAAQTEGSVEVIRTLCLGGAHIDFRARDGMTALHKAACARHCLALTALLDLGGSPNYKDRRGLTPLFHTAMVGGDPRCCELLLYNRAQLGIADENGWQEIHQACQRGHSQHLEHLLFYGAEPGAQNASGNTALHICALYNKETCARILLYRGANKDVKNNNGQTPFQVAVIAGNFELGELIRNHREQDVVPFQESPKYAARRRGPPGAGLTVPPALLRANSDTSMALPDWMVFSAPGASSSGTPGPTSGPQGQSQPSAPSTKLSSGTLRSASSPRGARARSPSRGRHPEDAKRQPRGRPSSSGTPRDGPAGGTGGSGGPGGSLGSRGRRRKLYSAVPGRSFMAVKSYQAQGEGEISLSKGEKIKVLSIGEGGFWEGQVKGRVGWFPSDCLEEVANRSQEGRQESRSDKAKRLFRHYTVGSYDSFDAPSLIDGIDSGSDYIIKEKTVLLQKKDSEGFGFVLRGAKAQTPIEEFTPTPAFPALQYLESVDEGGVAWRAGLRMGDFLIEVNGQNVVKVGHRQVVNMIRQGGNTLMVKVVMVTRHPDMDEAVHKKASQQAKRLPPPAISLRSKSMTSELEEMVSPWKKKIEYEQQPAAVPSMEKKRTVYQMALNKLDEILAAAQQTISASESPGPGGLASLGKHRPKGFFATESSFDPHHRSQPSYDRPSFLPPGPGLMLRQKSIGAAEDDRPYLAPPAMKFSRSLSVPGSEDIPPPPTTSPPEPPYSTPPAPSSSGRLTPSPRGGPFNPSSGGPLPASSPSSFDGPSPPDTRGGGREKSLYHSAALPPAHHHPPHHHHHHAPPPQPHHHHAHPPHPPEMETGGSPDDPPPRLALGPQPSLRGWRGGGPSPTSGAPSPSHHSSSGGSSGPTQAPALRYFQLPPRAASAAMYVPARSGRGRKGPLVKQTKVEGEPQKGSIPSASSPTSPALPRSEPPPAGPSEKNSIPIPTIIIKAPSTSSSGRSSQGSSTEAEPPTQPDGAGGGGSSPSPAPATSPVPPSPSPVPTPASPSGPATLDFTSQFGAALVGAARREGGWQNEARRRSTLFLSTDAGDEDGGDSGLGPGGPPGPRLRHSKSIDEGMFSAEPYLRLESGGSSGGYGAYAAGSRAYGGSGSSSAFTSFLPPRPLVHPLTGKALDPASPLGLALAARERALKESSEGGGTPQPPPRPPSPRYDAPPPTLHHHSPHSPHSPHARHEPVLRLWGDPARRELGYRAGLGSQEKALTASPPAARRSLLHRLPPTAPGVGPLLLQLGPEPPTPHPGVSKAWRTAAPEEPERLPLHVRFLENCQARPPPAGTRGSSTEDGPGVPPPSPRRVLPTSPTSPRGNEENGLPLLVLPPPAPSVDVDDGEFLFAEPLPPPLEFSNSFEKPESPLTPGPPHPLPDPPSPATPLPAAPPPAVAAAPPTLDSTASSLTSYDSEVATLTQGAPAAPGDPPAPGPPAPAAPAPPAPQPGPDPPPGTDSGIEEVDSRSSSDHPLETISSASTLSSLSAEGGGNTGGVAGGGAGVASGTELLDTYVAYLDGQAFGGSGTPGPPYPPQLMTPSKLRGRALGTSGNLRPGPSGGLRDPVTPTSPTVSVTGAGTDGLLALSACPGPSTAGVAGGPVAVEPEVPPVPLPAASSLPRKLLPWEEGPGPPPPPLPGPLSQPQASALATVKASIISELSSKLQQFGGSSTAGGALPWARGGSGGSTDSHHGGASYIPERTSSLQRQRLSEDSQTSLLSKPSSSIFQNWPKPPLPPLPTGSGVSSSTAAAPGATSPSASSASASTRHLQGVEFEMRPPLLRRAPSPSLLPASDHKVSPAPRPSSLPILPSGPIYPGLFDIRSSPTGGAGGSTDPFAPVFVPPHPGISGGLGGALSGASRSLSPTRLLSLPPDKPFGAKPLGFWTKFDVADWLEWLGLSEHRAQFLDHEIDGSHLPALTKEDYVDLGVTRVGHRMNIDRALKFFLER

Row | Variant | effect of a mutation on the interaction
5 | T930A | decreasing interaction
6 | T930A;F932A | disrupting interaction
7 | S920A | disrupting interaction
